How the values were obtained:
RXRa = RXRa (Homo sapiens, UniProt P19793); test: no ligand; PBM; 180 nM; PBS pH 7.4, 2% milk, 0.02% Triton X-100, 1 mM DTT, BSA, 0.4 mg/ml salmon testes DNA; details: tags: His cleaved; chain copies: 2; label: surface-attached array probe
THRa:RXRa = THRa:RXRa (Homo sapiens, UniProt P10827;P19793 full;full); test: no ligand; PBM; 90 nM : 90 nM RXRa; PBS pH 7.4, 2% milk, 0.02% Triton X-100, 1 mM DTT, BSA, 0.4 mg/ml salmon testes DNA; details: tags: His kept;His cleaved; copies: 1;1; label: surface-attached array probe
Sequence of THRa:RXRa (P10827 other isoform, or with tags, fused parts or gaps, chain 1 of 2): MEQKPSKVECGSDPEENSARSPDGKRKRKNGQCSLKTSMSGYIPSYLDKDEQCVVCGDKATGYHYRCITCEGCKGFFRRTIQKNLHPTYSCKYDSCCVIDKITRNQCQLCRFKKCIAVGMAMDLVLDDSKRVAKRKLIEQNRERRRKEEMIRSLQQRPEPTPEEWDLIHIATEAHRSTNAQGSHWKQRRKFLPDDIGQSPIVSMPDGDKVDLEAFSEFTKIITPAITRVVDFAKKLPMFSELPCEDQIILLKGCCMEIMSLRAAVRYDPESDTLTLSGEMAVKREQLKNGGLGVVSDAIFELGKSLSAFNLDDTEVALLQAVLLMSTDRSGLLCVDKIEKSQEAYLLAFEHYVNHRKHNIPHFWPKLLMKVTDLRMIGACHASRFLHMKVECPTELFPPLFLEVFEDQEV
Sequence of THRa:RXRa (P19793 whole entry, chain 2 of 2): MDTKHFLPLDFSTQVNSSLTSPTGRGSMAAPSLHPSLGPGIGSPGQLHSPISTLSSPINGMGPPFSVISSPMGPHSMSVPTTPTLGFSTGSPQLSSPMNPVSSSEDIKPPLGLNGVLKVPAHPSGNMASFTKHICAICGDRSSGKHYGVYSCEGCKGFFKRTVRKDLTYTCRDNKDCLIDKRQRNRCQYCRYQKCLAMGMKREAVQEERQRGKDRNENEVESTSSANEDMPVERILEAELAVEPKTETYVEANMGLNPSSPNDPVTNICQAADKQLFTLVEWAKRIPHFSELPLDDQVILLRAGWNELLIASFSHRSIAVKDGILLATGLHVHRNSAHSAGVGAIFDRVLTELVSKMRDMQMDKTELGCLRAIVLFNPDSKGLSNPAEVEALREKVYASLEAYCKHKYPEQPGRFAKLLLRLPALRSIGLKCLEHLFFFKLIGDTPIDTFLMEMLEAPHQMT
RARb:RXRa = RARb:RXRa (Homo sapiens, UniProt P10826;P19793 full;full); test: no ligand; PBM; 270 nM : 90 nM RXRa; PBS pH 7.4, 2% milk, 0.02% Triton X-100, 1 mM DTT, BSA, 0.4 mg/ml salmon testes DNA; details: tags: His kept;His cleaved; copies: 1;1; label: surface-attached array probe
Sequence of RARb:RXRa (P10826 whole entry, chain 1 of 2): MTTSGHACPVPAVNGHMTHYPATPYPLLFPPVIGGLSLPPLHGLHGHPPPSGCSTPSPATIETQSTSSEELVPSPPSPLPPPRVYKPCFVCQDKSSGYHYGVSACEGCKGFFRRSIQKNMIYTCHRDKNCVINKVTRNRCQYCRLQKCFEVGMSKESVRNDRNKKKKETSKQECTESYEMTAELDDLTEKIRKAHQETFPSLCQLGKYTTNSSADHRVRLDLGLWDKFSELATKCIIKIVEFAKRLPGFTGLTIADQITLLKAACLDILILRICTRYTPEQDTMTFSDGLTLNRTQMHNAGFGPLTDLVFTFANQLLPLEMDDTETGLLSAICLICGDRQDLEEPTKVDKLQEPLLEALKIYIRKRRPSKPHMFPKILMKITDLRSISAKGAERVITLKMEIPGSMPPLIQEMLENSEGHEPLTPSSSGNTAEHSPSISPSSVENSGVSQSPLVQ
Sequence of RARb:RXRa (P19793 whole entry, chain 2 of 2): as the sequence (P19793 whole entry, chain 2 of 2) above
Outline: (§1)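 Binding z-scores were set against random background probes. The data came from custom Agilent 4×180K protein-binding microarrays carrying double-stranded probes with 34-nt variable regions, incubated 1 h with ligand-free nuclear receptor dimers. Partner-specific antibodies detected binding, and scanned fluorescence was regression-normalized.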

VDR:RXRa = VDR:RXRa (Homo sapiens, UniProt P11473;P19793 full;full); test: as above; details: tags: His kept;His cleaved; copies: 1;1; label: surface-attached array probe
Outline: as §1

LXRa:RXRa = LXRa:RXRa (Homo sapiens, UniProt Q13133;P19793 full;full); test: as above; details: tags: His kept;His cleaved; copies: 1;1; label: surface-attached array probe
Outline: as §1

LXRb:RXRa = LXRb:RXRa (Homo sapiens, UniProt P55055;P19793 full;full); test: as above; details: tags: His kept;His cleaved; copies: 1;1; label: surface-attached array probe
Outline: as §1

FXR:RXRa = FXR:RXRa (Homo sapiens, UniProt Q96RI1;P19793 full;full); test: as above; details: tags: His kept;His cleaved; copies: 1;1; label: surface-attached array probe
Outline: as §1

PXR:RXRa = PXR:RXRa (Homo sapiens, UniProt O75469;P19793 full;full); test: as above; details: tags: His kept;His cleaved; copies: 1;1; label: surface-attached array probe
Outline: as §1

RARa:RXRa = RARa:RXRa (Homo sapiens, UniProt P10276;P19793 full;full); test: as above; details: tags: His kept;His cleaved; copies: 1;1; label: surface-attached array probe
Outline: as §1

RARg:RXRa = RARg:RXRa (Homo sapiens, UniProt P13631;P19793 full;full); test: as above; details: tags: His kept;His cleaved; copies: 1;1; label: surface-attached array probe
Sequence of RARg:RXRa (P13631 whole entry, chain 1 of 2): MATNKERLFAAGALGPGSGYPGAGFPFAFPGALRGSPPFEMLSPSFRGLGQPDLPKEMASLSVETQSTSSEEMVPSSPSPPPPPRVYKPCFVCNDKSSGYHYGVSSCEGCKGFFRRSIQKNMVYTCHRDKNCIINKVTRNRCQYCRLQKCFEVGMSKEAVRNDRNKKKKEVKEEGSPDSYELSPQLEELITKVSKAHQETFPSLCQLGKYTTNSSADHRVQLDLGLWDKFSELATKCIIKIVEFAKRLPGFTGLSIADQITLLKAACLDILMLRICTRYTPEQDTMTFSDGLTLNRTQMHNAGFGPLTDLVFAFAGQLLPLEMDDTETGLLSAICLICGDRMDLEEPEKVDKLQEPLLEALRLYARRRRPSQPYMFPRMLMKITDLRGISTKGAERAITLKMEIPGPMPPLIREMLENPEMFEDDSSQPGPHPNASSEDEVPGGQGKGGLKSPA
Sequence of RARg:RXRa (P19793 whole entry, chain 2 of 2): as the sequence (P19793 whole entry, chain 2 of 2) above
Outline: as §1

PPARa:RXRa = PPARa:RXRa (Homo sapiens, UniProt Q07869;P19793 full;full); test: as above; details: tags: GST kept;His cleaved; copies: 1;1; label: surface-attached array probe
Sequence of PPARa:RXRa (Q07869 whole entry, chain 1 of 2): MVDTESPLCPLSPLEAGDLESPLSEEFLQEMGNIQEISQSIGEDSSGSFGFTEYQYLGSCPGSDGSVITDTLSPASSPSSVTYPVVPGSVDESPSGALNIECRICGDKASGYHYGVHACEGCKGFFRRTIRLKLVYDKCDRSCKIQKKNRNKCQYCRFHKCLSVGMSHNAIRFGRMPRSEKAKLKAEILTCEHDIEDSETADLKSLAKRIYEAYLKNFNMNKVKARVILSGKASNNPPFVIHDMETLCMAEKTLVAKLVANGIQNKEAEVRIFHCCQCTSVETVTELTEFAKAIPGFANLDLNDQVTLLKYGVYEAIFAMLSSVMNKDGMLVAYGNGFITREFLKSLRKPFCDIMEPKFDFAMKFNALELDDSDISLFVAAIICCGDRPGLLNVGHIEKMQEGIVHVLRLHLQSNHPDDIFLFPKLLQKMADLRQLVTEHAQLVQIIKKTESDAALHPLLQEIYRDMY
Sequence of PPARa:RXRa (P19793 whole entry, chain 2 of 2): as the sequence (P19793 whole entry, chain 2 of 2) above
Outline: as §1

Sequence of RXRa (P19793 whole entry): as the sequence (P19793 whole entry, chain 2 of 2) above

B1: NRC3_wobSeed25_DR1_T8A_o1 (dsDNA)
DNA 1: GCCAAACAAGGTCAAAGGTCAAAGTCGAGCCAACCAGCGATTGACAGCGTAGAATGAAGG
DNA 2: CCTTCATTCTACGCTGTCAATCGCTGGTTGGCTCGACTTTGACCTTTGACCTTGTTTGGC
- binding signal (RXRa): 11.2 PBM z-score against 500 random probes
- binding signal (THRa:RXRa): 5.07 PBM z-score against 500 random probes
- binding signal (RARb:RXRa): 6.19 PBM z-score against 500 random probes
- binding signal (VDR:RXRa): 7.62 PBM z-score against 500 random probes
- binding signal (LXRa:RXRa): 8.24 PBM z-score against 500 random probes
- binding signal (LXRb:RXRa): 8.13 PBM z-score against 500 random probes
- binding signal (FXR:RXRa): 9.54 PBM z-score against 500 random probes
- binding signal (PXR:RXRa): 7.73 PBM z-score against 500 random probes
- binding signal (RARa:RXRa): 9.67 PBM z-score against 500 random probes
- binding signal (RARg:RXRa): 9.65 PBM z-score against 500 random probes

B2: NRC3_wobSeed25_DR1_T8G_o1 (dsDNA)
DNA 1: GCCAAACGAGGTCAAAGGTCAAAGTCGAGCCAACCAGCGATTGACAGCGTAGAATGAAGG
DNA 2: CCTTCATTCTACGCTGTCAATCGCTGGTTGGCTCGACTTTGACCTTTGACCTCGTTTGGC
- binding signal (RXRa): 11 PBM z-score against 500 random probes
- binding signal (THRa:RXRa): 5.46 PBM z-score against 500 random probes
- binding signal (RARb:RXRa): 6.33 PBM z-score against 500 random probes
- binding signal (VDR:RXRa): 8.02 PBM z-score against 500 random probes
- binding signal (LXRa:RXRa): 8.54 PBM z-score against 500 random probes
- binding signal (LXRb:RXRa): 8.31 PBM z-score against 500 random probes
- binding signal (FXR:RXRa): 9.93 PBM z-score against 500 random probes
- binding signal (PXR:RXRa): 7.89 PBM z-score against 500 random probes
- binding signal (RARa:RXRa): 9.62 PBM z-score against 500 random probes
- binding signal (RARg:RXRa): 9.68 PBM z-score against 500 random probes

B3: NRC3_wobSeed73_DR3_T8G_o1 (dsDNA)
DNA 1: GCCAAACGAGGTCACAGAGGTCAAAGTCCGTGCGTAGCGATTGACAGCGTAGAATGAAGG
DNA 2: CCTTCATTCTACGCTGTCAATCGCTACGCACGGACTTTGACCTCTGTGACCTCGTTTGGC
- binding signal (RXRa): 9.83 PBM z-score against 500 random probes
- binding signal (THRa:RXRa): 5.25 PBM z-score against 500 random probes
- binding signal (RARb:RXRa): 5.94 PBM z-score against 500 random probes
- binding signal (VDR:RXRa): 8.86 PBM z-score against 500 random probes
- binding signal (LXRa:RXRa): 7.82 PBM z-score against 500 random probes
- binding signal (PPARa:RXRa): 7.16 PBM z-score against 500 random probes
- binding signal (LXRb:RXRa): 7.74 PBM z-score against 500 random probes
- binding signal (FXR:RXRa): 9.18 PBM z-score against 500 random probes
- binding signal (PXR:RXRa): 8.14 PBM z-score against 500 random probes
- binding signal (RARa:RXRa): 9.08 PBM z-score against 500 random probes
- binding signal (RARg:RXRa): 8.72 PBM z-score against 500 random probes

B4: NRC3_wobSeed49_DR2_T8A_o1 (dsDNA)
DNA 1: GCCAAACAAGGTCAAGAGGTCAAAGTCCGCTTCCCGGCGATTGACAGCGTAGAATGAAGG
DNA 2: CCTTCATTCTACGCTGTCAATCGCCGGGAAGCGGACTTTGACCTCTTGACCTTGTTTGGC
- binding signal (RXRa): 9.65 PBM z-score against 500 random probes
- binding signal (THRa:RXRa): 4.99 PBM z-score against 500 random probes
- binding signal (RARb:RXRa): 6.31 PBM z-score against 500 random probes
- binding signal (VDR:RXRa): 7.22 PBM z-score against 500 random probes
- binding signal (LXRa:RXRa): 7.44 PBM z-score against 500 random probes
- binding signal (PPARa:RXRa): 7.02 PBM z-score against 500 random probes
- binding signal (LXRb:RXRa): 6.73 PBM z-score against 500 random probes
- binding signal (FXR:RXRa): 8.52 PBM z-score against 500 random probes
- binding signal (PXR:RXRa): 7.38 PBM z-score against 500 random probes
- binding signal (RARa:RXRa): 9.05 PBM z-score against 500 random probes
- binding signal (RARg:RXRa): 9.11 PBM z-score against 500 random probes

B5: NRC3_wobSeed121_DR5_T8A_o1 (dsDNA)
DNA 1: GCCAAACAAGGTCACCGGAAGGTCAAAGTCCGCATGGCGATTGACAGCGTAGAATGAAGG
DNA 2: CCTTCATTCTACGCTGTCAATCGCCATGCGGACTTTGACCTTCCGGTGACCTTGTTTGGC
- binding signal (RXRa): 8.89 PBM z-score against 500 random probes
- binding signal (THRa:RXRa): 5.05 PBM z-score against 500 random probes
- binding signal (RARb:RXRa): 6.21 PBM z-score against 500 random probes
- binding signal (VDR:RXRa): 7.25 PBM z-score against 500 random probes
- binding signal (LXRa:RXRa): 7.26 PBM z-score against 500 random probes
- binding signal (LXRb:RXRa): 7.08 PBM z-score against 500 random probes
- binding signal (FXR:RXRa): 8.52 PBM z-score against 500 random probes
- binding signal (PXR:RXRa): 7.43 PBM z-score against 500 random probes
- binding signal (RARa:RXRa): 8.86 PBM z-score against 500 random probes
- binding signal (RARg:RXRa): 9.36 PBM z-score against 500 random probes

B6: NRC3_wobSeed121_DR5_T8G_o1 (dsDNA)
DNA 1: GCCAAACGAGGTCACCGGAAGGTCAAAGTCCGCATGGCGATTGACAGCGTAGAATGAAGG
DNA 2: CCTTCATTCTACGCTGTCAATCGCCATGCGGACTTTGACCTTCCGGTGACCTCGTTTGGC
- binding signal (RXRa): 9.51 PBM z-score against 500 random probes
- binding signal (THRa:RXRa): 5.39 PBM z-score against 500 random probes
- binding signal (RARb:RXRa): 6.23 PBM z-score against 500 random probes
- binding signal (VDR:RXRa): 7.56 PBM z-score against 500 random probes
- binding signal (LXRa:RXRa): 7.39 PBM z-score against 500 random probes
- binding signal (PPARa:RXRa): 7.14 PBM z-score against 500 random probes
- binding signal (LXRb:RXRa): 7.15 PBM z-score against 500 random probes
- binding signal (FXR:RXRa): 8.64 PBM z-score against 500 random probes
- binding signal (PXR:RXRa): 7.41 PBM z-score against 500 random probes
- binding signal (RARa:RXRa): 8.77 PBM z-score against 500 random probes
- binding signal (RARg:RXRa): 9.6 PBM z-score against 500 random probes

— paper PMC6555819, “Comprehensive study of nuclear receptor DNA binding provides a revised framework for understanding receptor specificity”
